Residue numbers refer to the chain shown, from its start.

Assay [1] has as its target T1, mitoNEET (Mito) fused to mCherry and a C-terminal smHA tag (Mito-mCh-smHA) (Homo sapiens (Human), UniProt Q9NZ45 1-33).
T1 construct: also called smHA tagged Mito
T1 peptide: YPYDVPDYA
In words: live-cell imaging, U2OS cells; reference Mito-mCh-1×HA.

The target in assay [2] is T2, mCherry-H2B without HA tag (mCh-H2B) (UniProt P06899 1-126). In words: nuclear to cytoplasmic fluorescence ratio of FB-GFP in living U2OS cells lacking the HA tag.
Assay [3] addresses T1, mitoNEET (Mito) fused to mCherry and a …. In words: live-cell imaging, U2OS cells, FB-GFP fluorescence at mitochondria over background.
Assay [4] deals with T2, mCherry-H2B without HA tag (mCh-H2B). Nature of the assay: nuclear to cytoplasmic fluorescence ratio of the GFP-fused scFv in living U2OS cells with mCh-H2B lacking the HA tag.
The target in another assay is T3, H2B-mCh-TrunTag.
T3 construct: not shown: Histone H2B, mCherry and the linkers between the parts
T3 peptide: LPGRWKPKM
Nature of the assay: live-cell fluorescence imaging of U2OS cells co-expressing the GFP-fused scFv and H2B-mCh-TrunTag; co-localization in the nucleus.

In another assay the target is T4, H2B-mCh-OrigTag.
T4 construct: not shown: Histone H2B, mCherry and the linkers between the parts
T4 peptide: MSLPGRWKPKM
In words: live-cell fluorescence imaging of U2OS cells co-expressing the GFP-fused scFv and H2B-mCh-OrigTag; co-localization in the nucleus.

B1: χ15F11^HA chimeric anti-HA scFv fused to mEGFP (HA frankenbody, FB-GFP), expressed in cells (scFv, not shown: large carriers)
scFv: MAEVKLVESGGGLVKPGGSLKLSCAASGFTFSSYGMSWVRQTPEKRLEWVATISRGGSYTYYPDSVKGRFTISRDNAKNTLYLQMSSLRSEDTAIYYCARRETYDEKGFAYWGQGTTLTVSSGGGGSGGGGSGGGGSDIVLTQSPASLTVSLGQRATISCKSSQSLLNSGNQKNYLTWYQQKPGQPPKLLIYWASTRESGIPARFSGSGSGTDFTLNIHPVEEEDAATYYCQNDNSHPLTFGAGTKLEIGGGGSGGGGSGGGGSGGGGSGGGGS
notes: also called 15F11-HA-FB; pCMV-15F11-HA-mEGFP
As to B1, the “Mito/Bg ratio of smHA tagged Mito against 1×HA tagged Mito” value in assay [1] came to 4.7 times. Besides, the binding result in assay [2] is reported as “no binding”. For the same molecule, in assay [3], the “mitochondria to background fluorescent intensity ratio (Mito/Bg)” value was determined as 16.6 ratio.

B2: χ2E2^HA chimeric anti-HA scFv fused to mEGFP (scFv, not shown: large carriers)
scFv: B1 scFv with K5Q, G12D, E44D, R89K, I95M, T117S, L118V, T149A, A243G
notes: also called 2E2-HA-FB; pCMV-2E2-HA-mEGFP
On to B2, for which the binding result in assay [4] is “no binding”.

B3: χ15F11^HIV chimeric anti-HIV protease scFv fused to GFP (scFv)
scFv: MAEVKLVESGGGLVKPGGSLKLSCAASGFTFSRFGMHWVRQTPEKRLEWVAYISSGSSTIYYADTVKGRFTISRDNAKNTLYLQMSSLRSEDTAIYYCARSGGIERYDGTYYVMDYWGQGTTLTVSSGGGGSGGGGSGGGGSDIVLTQSPASLTVSLGQRATISCRASESVDYYGKSFMNWYQQKPGQPPKLLIYAASNQGSGIPARFSGSGSGTDFTLNIHPVEEEDAATYYCQQSKEVPWTFGAGTKLEI
notes: also called 15F11-HIV-FB; anti-HIV protease frankenbody
For the molecule B3, the binding result with H2B-mCh-TrunTag and in the assay with H2B-mCh-OrigTag was “binds” in each case.

(Values after patent US20200102373A1 (COLORADO STATE UNIVERSITY RESEARCH FOUNDATION, published 2020).)
